Data published in US20220195061A1 (Novartis, published 2022).

Target: human CD40 on cells (human, UniProt P25942 21-277)
Assay: cell-based or functional assay

Sequence of human CD40 on cells (P25942 21-277 limits assumed): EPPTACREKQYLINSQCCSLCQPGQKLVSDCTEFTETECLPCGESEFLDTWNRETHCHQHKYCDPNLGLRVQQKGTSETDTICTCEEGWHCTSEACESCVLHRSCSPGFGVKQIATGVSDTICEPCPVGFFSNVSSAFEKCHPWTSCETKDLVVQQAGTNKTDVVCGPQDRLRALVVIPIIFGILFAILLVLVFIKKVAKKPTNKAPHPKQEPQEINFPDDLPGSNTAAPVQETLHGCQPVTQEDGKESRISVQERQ

B1: CFZ533 (antibody, human IgG1, kappa, N297A)
heavy: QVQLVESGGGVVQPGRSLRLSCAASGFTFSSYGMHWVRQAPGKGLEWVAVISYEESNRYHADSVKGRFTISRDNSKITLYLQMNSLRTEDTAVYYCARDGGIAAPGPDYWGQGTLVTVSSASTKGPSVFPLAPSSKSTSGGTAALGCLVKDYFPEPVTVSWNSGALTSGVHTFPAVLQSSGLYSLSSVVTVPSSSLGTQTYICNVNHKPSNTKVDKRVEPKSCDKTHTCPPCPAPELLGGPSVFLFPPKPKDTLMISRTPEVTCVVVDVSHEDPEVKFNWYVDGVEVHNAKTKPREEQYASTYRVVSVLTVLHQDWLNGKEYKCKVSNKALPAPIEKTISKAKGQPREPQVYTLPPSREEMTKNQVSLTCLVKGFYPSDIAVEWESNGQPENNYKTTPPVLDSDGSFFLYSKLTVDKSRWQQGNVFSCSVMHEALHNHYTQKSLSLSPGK
light: DIVMTQSPLSLTVTPGEPASISCRSSQSLLYSNGYNYLDWYLQKPGQSPQVLISLGSNRASGVPDRFSGSGSGTDFTLKISRVEAEDVGVYYCMQARQTPFTFGPGTKVDIRRTVAAPSVFIFPPSDEQLKSGTASVVCLLNNFYPREAKVQWKVDNALQSGNSQESVTEQDSKDSTYSLSSTLTLSKADYEKHKVYACEVTHQGLSSPVTKSFNRGEC
- IC50 (read off the curve), rCD154-induced CD69 expression on CD20pos B cells: ~0.1 µg/mL
